The text below walks through data of PMC3327772.

The assay has as its target IAEDANS labeled sarcoplasmic reticulum Ca-ATPase (SERCA) (rabbit (purified from rabbit skeletal muscle)) (UniProt P04191). Nature of the assay: FRET or BRET. On the technique in general: Bioluminescence resonance energy transfer reports proximity on the nanometre scale.

For the substance “Dabcyl labeled monomeric AFA-PLB mutant (C36A/C41F/C46A) of phospholamban (peptide)”, the Xb (fraction of SERCA bound to PLB) (mole fraction) was 0.82.
